Experimental data reported in patent CN116715769A (dated 2023).

T1: human HVEM (human, UniProt Q92956)
T1 chain: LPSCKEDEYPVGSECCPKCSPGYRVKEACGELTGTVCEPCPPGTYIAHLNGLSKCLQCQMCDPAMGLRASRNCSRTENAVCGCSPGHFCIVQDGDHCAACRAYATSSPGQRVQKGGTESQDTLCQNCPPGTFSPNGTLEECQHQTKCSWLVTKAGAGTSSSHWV

T2: mouse HVEM (mouse, UniProt Q80WM9)
T2 chain: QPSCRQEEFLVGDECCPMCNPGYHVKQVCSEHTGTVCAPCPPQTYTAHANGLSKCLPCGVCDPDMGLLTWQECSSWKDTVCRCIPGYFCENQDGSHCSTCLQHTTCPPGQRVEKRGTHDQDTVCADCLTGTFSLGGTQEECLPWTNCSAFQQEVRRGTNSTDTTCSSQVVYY


Legend:
human HVEM = target: T1, human HVEM; assay: SPR
mouse HVEM = target: T2, mouse HVEM; assay: ELISA

Kd (human HVEM) [pM] | binding result (mouse HVEM) | Binder
0.705 | no binding | 52B7 (protein) chain 1: QVQLKQSGPGLVQPSQSLSITCTVSGFSLTIYGVHWIRQSPGKGLEWLGVIWTGGNTDYNAAFMSRLSITKDNSKSQVFF chain 2: EIVLTQSPALMAASPGEKVTITCSVSSNISSGNLHWYQQKSETSPKPWIYGTSNLASGVPVRFSGSRSGTSYSLTISSME
 | no binding | 26C3 (protein) chain 1: QVQLQQPGSELVRPGASVKLSCKASGYTFTSYWMHWVKQRPGQGLEWIGDIYPGSDGTNYDEKFKSKATLTVDTSSSTAY chain 2: DIQMTQTTSSLSASLGDRVTISCRASQDISNSLNWYQQKPDGTVKLLIYYTSRLHSGVPSRFSGSGSGTDYSLTISNLE
 | no binding | 22G5 (protein) chain 1: EVQLQESGGGLVQPGGSRKLSCAASGFTFSSFGMHWVRQAPEKGLEWVAFISSGSSSIYYADTVKGRFTISRDNPRNTL chain 2: DVVMTQTPLSLPVSLGDQASISCRSSQSLVHSNGNTYFHWYLQKPGQSPKLLIYKVSNRFSGVPDRFSGSGSGTDFTLKI
